# B1: M38V/T41D/M43I/W50G/D76G/V83A/K89E/I118V/T120S/I126V/T130A (protein)
# chain: VIHVTKEVKEVATLSCGHNVSVEELAQTRIYWQKEKKVVLDMISGDMNIGPEYKNRTIFDITNNLSIVILALRPSGEGTYECAVLKYEEDAFKREHLAEVTLSVKADFPTPSISDFEVPSSNIRRVICSASGGFPEPHLSWLENGEELNAINTTVSQDPETELYAVSSKLDFNMTTNHSFMCLIKYGHLRVNQTFNWNTTKQEHFPDN
# B2: R29D/Y31L/Q33H/K36G/M38I/T41A/M43R/M47T/E81V/L85R/K89N/A91T/F92P/K93V/R94L/I118T/N149S (protein)
# chain: VIHVTKEVKEVATLSCGHNVSVEELAQTDILWHKEGKIVLAMRSGDTNIWPEYKNRTIFDITNNLSIVILALRPSDEGTYVCVVRKYENDTPVLEHLAEVTLSVKADFPTPSISDFETPTSNIRRIICSTSGGFPEPHLSWLENGEELSAINTTVSQDPETELYAVSSKLDFNMTTNHSFMCLIKYGHLRVNQTFNWNTTKQEHFPDN
# B3: E24G/R29D/Y31L/Q33H/K36G/M38I/T41A/M43R/M47T/F59L/E81V/L85R/K89N/A91T/F92P/K93V/R94L/H96R/N149S/C182S (protein)
# chain: VIHVTKEVKEVATLSCGHNVSVEGLAQTDILWHKEGKIVLAMRSGDTNIWPEYKNRTILDITNNLSIVILALRPSDEGTYVCVVRKYENDTPVLERLAEVTLSVKADFPTPSISDFEIPTSNIRRIICSTSGGFPEPHLSWLENGEELSAINTTVSQDPETELYAVSSKLDFNMTTNHSFMSLIKYGHLRVNQTFNWNTTKQEHFPDN
# B4: R29D/Y31L/Q33H/K36G/M38I/T41A/M42T/M43R/M47T/E81V/L85R/K89N/A91T/F92P/K93V/R94L/L148S/N149S (protein)
# chain: VIHVTKEVKEVATLSCGHNVSVEELAQTDILWHKEGKIVLATRSGDTNIWPEYKNRTIFDITNNLSIVILALRPSDEGTYVCVVRKYENDTPVLEHLAEVTLSVKADFPTPSISDFEIPTSNIRRIICSTSGGFPEPHLSWLENGEESSAINTTVSQDPETELYAVSSKLDFNMTTNHSFMCLIKYGHLRVNQTFNWNTTKQEHFPDN
# B5: R29D/Y31L/Q33H/K36G/M38I/T41A/M43R/M47T/E81V/L85R/K89N/A91T/F92P/K93V/R94L/N144S/N149S (protein)
# chain: VIHVTKEVKEVATLSCGHNVSVEELAQTDILWHKEGKIVLAMRSGDTNIWPEYKNRTIFDITNNLSIVILALRPSDEGTYVCVVRKYENDTPVLEHLAEVTLSVKADFPTPSISDFEIPTSNIRRIICSTSGGFPEPHLSWLESGEELSAINTTVSQDPETELYAVSSKLDFNMTTNHSFMCLIKYGHLRVNQTFNWNTTKQEHFPDN
# B6: R29D/Y31L/Q33H/K36G/M38I/T41A/M43R/M47T/E81V/L85R/K89N/A91T/F92P/K93V/R94L/N149S (protein)
# chain: VIHVTKEVKEVATLSCGHNVSVEELAQTDILWHKEGKIVLAMRSGDTNIWPEYKNRTIFDITNNLSIVILALRPSDEGTYVCVVRKYENDTPVLEHLAEVTLSVKADFPTPSISDFEIPTSNIRRIICSTSGGFPEPHLSWLENGEELSAINTTVSQDPETELYAVSSKLDFNMTTNHSFMCLIKYGHLRVNQTFNWNTTKQEHFPDN
# B7: R29H/E52G/D90N/I118V/T120S/T130A (protein)
# chain: VIHVTKEVKEVATLSCGHNVSVEELAQTHIYWQKEKKMVLTMMSGDMNIWPGYKNRTIFDITNNLSIVILALRPSDEGTYECVVLKYEKNAFKREHLAEVTLSVKADFPTPSISDFEVPSSNIRRIICSASGGFPEPHLSWLENGEELNAINTTVSQDPETELYAVSSKLDFNMTTNHSFMCLIKYGHLRVNQTFNWNTTKQEHFPDN
# modifications: CD80 v142 ECD
# B8: I67F/L70R/E88G/A91G/I118V/T120S/T130A (protein)
# chain: VIHVTKEVKEVATLSCGHNVSVEELAQTRIYWQKEKKMVLTMMSGDMNIWPEYKNRTIFDITNNLSFVIRALRPSDEGTYECVVLKYGKDGFKREHLAEVTLSVKADFPTPSISDFEVPSSNIRRIICSASGGFPEPHLSWLENGEELNAINTTVSQDPETELYAVSSKLDFNMTTNHSFMCLIKYGHLRVNQTFNWNTTKQEHFPDN
# modifications: CD80 v148 ECD
# B9: L70Q/A91G/T110A/I118V/T120S/T130A (protein)
# chain: VIHVTKEVKEVATLSCGHNVSVEELAQTRIYWQKEKKMVLTMMSGDMNIWPEYKNRTIFDITNNLSIVIQALRPSDEGTYECVVLKYEKDGFKREHLAEVTLSVKADFPAPSISDFEVPSSNIRRIICSASGGFPEPHLSWLENGEELNAINTTVSQDPETELYAVSSKLDFNMTTNHSFMCLIKYGHLRVNQTFNWNTTKQEHFPDN
# modifications: CD80 v145 ECD
# B10: A91G/L102S (protein)
# chain: VIHVTKEVKEVATLSCGHNVSVEELAQTRIYWQKEKKMVLTMMSGDMNIWPEYKNRTIFDITNNLSIVILALRPSDEGTYECVVLKYEKDGFKREHLAEVTSSVKADFPTPSISDFEIPTSNIRRIICSTSGGFPEPHLSWLENGEELNAINTTVSQDPETELYAVSSKLDFNMTTNHSFMCLIKYGHLRVNQTFNWNTTKQEHFPDN
# B11: I67T/L70Q/A91G/I118V/T120S (protein)
# chain: VIHVTKEVKEVATLSCGHNVSVEELAQTRIYWQKEKKMVLTMMSGDMNIWPEYKNRTIFDITNNLSTVIQALRPSDEGTYECVVLKYEKDGFKREHLAEVTLSVKADFPTPSISDFEVPSSNIRRIICSTSGGFPEPHLSWLENGEELNAINTTVSQDPETELYAVSSKLDFNMTTNHSFMCLIKYGHLRVNQTFHWNTTKQEHFPDN
# modifications: CD80 v144 ECD
# B12: A91G/F92L/F108L/1118V/T120S (protein)
# chain: VIHVTKEVKEVATLSCGHNVSVEELAQTRIYWQKEKKMVLTMMSGDMNIWPEYKNRTIFDITNNLSIVILALRPSDEGTYECVVLKYEKDGLKREHLAEVTLSVKADLPTPSISDFEVPSSNIRRIICSTSGGFPEPHLSWLENGEELNAINTTVSQDPETELYAVSSKLDFNMTTNHSFMCLIKYGHLRVNQTFNWNTTKQEHFPDN
# B13: V22A/L70Q/S121P (protein)
# chain: VIHVTKEVKEVATLSCGHNVSAEELAQTRIYWQKEKKMVLTMMSGDMNIWPEYKNRTIFDITNNLSIVIQALRPSDEGTYECVVLKYEKDAFKREHLAEVTLSVKADFPTPSISDFEIPTPNIRRIICSTSGGFPEPHLSWLENGEELNAINTTVSQDPETELYAVSSKLDFNMTTNHSFMCLIKYGHLRVNQTFNWNTTKQEHFPDN
# modifications: CD80 v33 ECD
# B14: E24G/L25P/L70Q/A91G/I118V/T120S/N152T (protein)
# chain: VIHVTKEVKEVATLSCGHNVSVEGPAQTRIYWQKEKKMVLTMMSGDMNIWPEYKNRTIFDITNNLSIVIQALRPSDEGTYECVVLKYEKDGFKREHLAEVTLSVKADFPTPSISDFEVPSSNIRRIICSTSGGFPEPHLSWLENGEELNAITTTVSQDPETELYAVSSKLDFNMTTNHSFMCLIKYGHLRVNQTFNWNTTKQEHFPDN
# modifications: CD80 v149 ECD
# B15: A12V/S15F/Y31H/M38L/T41G/M43L/D90N/T130A/P137L/N149D/N152T (protein)
# chain: VIHVTKEVKEVVTLFCGHNVSVEELAQTRIHWQKEKKLVLGMLSGDMNIWPEYKNRTIFDITNNLSIVILALRPSDEGTYECVVLKYEKNAFKREHLAEVTLSVKADFPTPSISDFEIPTSNIRRIICSASGGFPELHLSWLENGEELDAITTTVSQDPETELYAVSSKLDFNMTTNHSFMCLIKYGHLRVNQTFNWNTTKQEHFPDN
# Key:
# human pan T cells = assay: Anti-CD3 coimmobilization assay, IFN-gamma; format: cell-based; conditions: culture supernatant; for Coimmobilization with anti CD3 IFN-gamma: Table E32, variant ECD-Fc coimmobilized with anti-CD3; for Coimmobilization with anti-CD3 IFN-gamma: Table E33, 3 days
# Summary of the method: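 IFN-gamma in 3-day culture supernatants, quantified by ELISA, reflects costimulation. Human pan T cells or BC3 clone (100,000/well, Ex-Vivo 15) were placed on wells pre-adsorbed overnight with rCD80.Fc variants (1–80 nM) together with anti-CD3 OKT3 (1 nM or 4 nM), unbound protein removed.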
# allogeneic CD4+ T cells = assay: Mixed Lymphocyte Reaction (MLR), IFN-gamma; format: cell-based, human; conditions: culture supernatant
# Description: Soluble rCD80.Fc bioactivity was tested in a human Mixed Lymphocyte Reaction (MLR). Human primary dendritic cells (DC) were generated by culturing monocytes isolated from PBMC (BenTech Bio, USA) in vitro for 7 days with 500U/ml rIL-4 (R&D Systems, USA) and 250 U/ml rGM-CSF (R&D Systems, USA) in Ex-Vivo 15 media (Lonza, Switzerland). 10,000 matured DC and 100,000 purified allogeneic CD4+ T cells (BenTech Bio, USA) were co-cultured with variant CD80 Fc fusion proteins and controls in 96 well round bottom plates in 200 μl final volume of Ex-Vivo 15 media. On day 5, IFN-gamma secretion in culture supernatants was analyzed using the Human IFN-gamma Duoset ELISA kit (R&D Systems, USA). Optical density was measured by VMax ELISA Microplate Reader (Molecular Devices, USA) and quantitated against titrated rIFN-gamma standard included in the IFN-gamma Duo-set kit (R&D Systems, USA).
# [1] = Table E32, variant ECD-Fc in MLR assay
Molecule,Coimmobilization with anti CD3 IFN-gamma (human pan T cells) [pg/mL],MLR IFN-gamma levels (allogeneic CD4+ T cells; [1]) [pg/mL],Coimmobilization with anti-CD3 IFN-gamma (human pan T cells) [pg/mL],MLR IFN-gamma levels (allogeneic CD4+ T cells; Table E33) [pg/mL]
B1,82,671,,
B2,,,387,5028
B3,,,406,13146
B4,,,464,17387
B5,,,400,7943
B6,,,405,24029
B7,124,800,,
B8,62,1003,,
B9,77,656,,
B10,75,698,,
B11,1751,794,,
B12,59,665,,
B13,105,976,,
B14,101,969,,
B15,104,711,,
